The target of assay [1] is T1, hPD-L1(ECD)-mFc (human).
T1 construct: Human PD-L1 extracellular domain fused to a mouse antibody heavy chain Fc tag; also called hPD-L1-mFc; PD-L1-mFc
The experiment in a line: ELISA, hPD-L1-mFc coated.

Assay [2] concerns the target PD-L1抗原 (PD-L1 antigen coated in detection method 1.2) (human, UniProt Q9NZQ7 19-238, limits assumed). The experiment in a line: competition ELISA: PD-L1 antigen coated, competitor biotin PD-1-mFc.
Assay [3] deals with T2, PD-L1 on U2OS cells stably expressing PD-L1 (UniProt Q9NZQ7 19-290, limits assumed).
T2 construct: whole, on cells; also called PD-L1-U2OS; U2OS PD-L1细胞
The experiment in a line: flow cytometry on PD-L1-U2OS cells, competitor biotin PD-1 protein, MFI.

Assay [4] addresses T3, 人PD-L1抗原 (hPD-L1-his, Sino biological 10084-H08H-200) (human, UniProt Q9NZQ7 19-239).
T3 construct: Bought analyte of the Biacore assay; also called human PD-L1 antigen
In words: SPR (Biacore T200), antibody captured by anti-human antibody on CM5, PD-L1-his as analyte, 1:1 Langmuir fit.

This passage reports EC50, IC50 and Kd results from patent WO2019109974A1 (dated 2019).

T2 sequence (Q9NZQ7 19-290 limits assumed): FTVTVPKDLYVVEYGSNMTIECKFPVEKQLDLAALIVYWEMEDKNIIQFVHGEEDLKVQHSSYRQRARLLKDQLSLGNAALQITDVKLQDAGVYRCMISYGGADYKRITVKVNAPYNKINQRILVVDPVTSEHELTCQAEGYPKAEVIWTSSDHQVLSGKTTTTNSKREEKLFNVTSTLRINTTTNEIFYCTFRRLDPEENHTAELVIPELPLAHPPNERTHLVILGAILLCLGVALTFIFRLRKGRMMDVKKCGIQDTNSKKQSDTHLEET
Chain of PD-L1抗原 (PD-L1 antigen coated in detection method 1.2) (Q9NZQ7 19-238 limits assumed): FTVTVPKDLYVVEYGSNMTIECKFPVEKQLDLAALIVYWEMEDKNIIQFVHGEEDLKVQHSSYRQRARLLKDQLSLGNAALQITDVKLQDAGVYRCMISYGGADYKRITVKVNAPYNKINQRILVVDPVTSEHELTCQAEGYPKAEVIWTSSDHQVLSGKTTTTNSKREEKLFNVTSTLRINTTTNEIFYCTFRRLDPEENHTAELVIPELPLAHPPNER
T1 sequence (chain, as listed by the source limits assumed): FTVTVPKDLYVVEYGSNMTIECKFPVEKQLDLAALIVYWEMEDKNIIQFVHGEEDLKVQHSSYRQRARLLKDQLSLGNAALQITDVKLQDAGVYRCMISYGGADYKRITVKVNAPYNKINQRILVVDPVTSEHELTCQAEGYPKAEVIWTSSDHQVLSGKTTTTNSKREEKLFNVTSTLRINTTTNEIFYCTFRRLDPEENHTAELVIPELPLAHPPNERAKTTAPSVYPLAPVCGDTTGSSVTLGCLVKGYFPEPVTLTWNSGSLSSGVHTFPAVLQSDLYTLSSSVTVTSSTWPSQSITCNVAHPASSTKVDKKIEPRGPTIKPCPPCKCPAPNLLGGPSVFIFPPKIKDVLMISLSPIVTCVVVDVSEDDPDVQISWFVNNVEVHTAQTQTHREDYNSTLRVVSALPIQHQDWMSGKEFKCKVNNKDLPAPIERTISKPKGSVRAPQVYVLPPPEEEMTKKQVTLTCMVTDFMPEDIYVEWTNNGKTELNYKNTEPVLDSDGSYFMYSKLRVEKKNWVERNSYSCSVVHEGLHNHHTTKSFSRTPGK
T3 sequence (Q9NZQ7 19-239 limits assumed): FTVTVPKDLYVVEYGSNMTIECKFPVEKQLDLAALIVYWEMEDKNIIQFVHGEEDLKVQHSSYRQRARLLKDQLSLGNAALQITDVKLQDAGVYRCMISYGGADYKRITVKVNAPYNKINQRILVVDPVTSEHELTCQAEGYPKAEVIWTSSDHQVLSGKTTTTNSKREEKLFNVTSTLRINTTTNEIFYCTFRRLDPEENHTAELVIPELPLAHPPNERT

B1: 嵌合抗体1(Chi1) chimeric antibody 1 (antibody, human IgG1, kappa, V domains shown)
VH: EVQLQESGPGLAKPSQTLSLTCSVTGYSITSDYWNWIRRFPGNKLEYMGYISYTGSTYYNPSLKSRISITRDTSKNQYYLQLKSVTTEDTATYYCARGEAWDRRTLDCWGQGTSVTVSS
VL: DFQMTQTTSSLSASLGDRVTISCRASQDITNYLNWYQQKPDGTVKLLIYYTSRLHSGVPSRFSGSGSGSDYALTISNLEQEDIATYFCQQVYTLPWTFGRGTKLEIKR
notes: expressed in ExpiCHO; also called 母本嵌合抗体
For the molecule B1, a half-maximal effect in assay [1] (EC50) was put at 0.107 µg/mL. For the same molecule, the 50% inhibitory concentration (IC50) in assay [2] amounted to 0.514 µg/mL; in assay [3], 0.195 µg/mL. Also, in assay [4], the dissociation constant (Kd) worked out at 674 pM.

B2: 嵌合抗体2-1(Chi2-1) chimeric antibody 2-1 (antibody, human IgG1, kappa, V domains shown)
VH: QVQLQQPGAELVRPGASVKLSCKASGYSFTFYWMNWVKQRPGQGLEWIGMIHPSDSETRLNQKFKDKATLTVDKSSSTAYMQLSSPTSEDTAVYYCVRNMVWSRQVMDYWGQGTSVTVSS
VL: DVVMTQTPLTLSVTIGQPASISCKSSQSLLDSDGNTYLNWLLQRPGESPKLLLYLVSKLDSGVPDRFTGSGSGTDFTLKIGRVEAADLGVYYCLQSTHFPYTFGGGTKLEIKR
notes: Mouse variable regions joined to human IgG1 and human kappa constant regions
Turning to B2, a half-maximal response in assay [1] (EC50) required 0.145 µg/mL. Besides, the IC50 in assay [2] was determined as 0.462 µg/mL; in assay [3], 0.248 µg/mL.

B3: hu-Chi1-3.4 (antibody, human IgG1, kappa, V domains shown)
VH: QVQLQESGPGLVKPSQTLSLTCTVSGYSITSDYWNWIRQHPGKGLEYIGYISYTGSTYYNPSLKSRVTISRDTSKNQFSLKLSSVTAADTAVYYCARGEAWDRRTLDYWGQGTLVTVSS
VL: DFQMTQSPSSLSASVGDRVTITCRASQDITNYLNWYQQKPDKAVKLLIYYTSRLHSGVPSRFSGSGSGTDFTLTISSLQPEDFATYYCQQVYTLPWTFGQGTKLEIKR
notes: also called Chi1_VH.1D / Chi1_VL.1C
With B3, binding in assay [4] was put at a Kd of 799 pM.

B4: 嵌合抗体Chi2-2 chimeric antibody Chi2-2 (antibody, human IgG1, kappa, V domains shown)
VH: QVQLQQPGAELVRPGASVNLSCKTSGYSFTSYWMNWVKQRPGQGLEWIGMIHPSDSETWLNQKFKDKATLTVDKSSSTVHMQLSSPTSEDSAVFYCVRSMVWTRHVMDYWGQGTSVTVSS
VL: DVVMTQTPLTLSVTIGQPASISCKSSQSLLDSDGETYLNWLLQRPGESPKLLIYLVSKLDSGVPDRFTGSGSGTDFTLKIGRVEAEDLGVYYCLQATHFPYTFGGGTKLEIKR
notes: as for B2
With B4, the half-maximal inhibitory concentration (IC50) in assay [2] worked out at 1.44 µg/mL; in assay [3] it was 2.17 µg/mL.
